The source of these data is patent publication US20250206841A1 (ADEPT THERAPEUTICS, published 2025).

In assay [1] the target is T1, human Trop-2 expressed on cell surface (human, UniProt P09758 27-323).
T1 construct: whole, on cells; also called cell surface Trop-2
T1 sequence (looked up): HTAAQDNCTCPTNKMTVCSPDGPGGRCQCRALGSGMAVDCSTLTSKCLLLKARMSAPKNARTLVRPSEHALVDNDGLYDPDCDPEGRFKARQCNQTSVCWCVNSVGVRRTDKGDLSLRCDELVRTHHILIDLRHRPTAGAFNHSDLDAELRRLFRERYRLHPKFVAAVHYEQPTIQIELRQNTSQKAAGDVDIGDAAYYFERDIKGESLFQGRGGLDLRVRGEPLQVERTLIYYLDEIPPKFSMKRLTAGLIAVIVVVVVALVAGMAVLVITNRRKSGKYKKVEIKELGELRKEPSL
In words: flow cytometry, MDA-MB-231-GFP cells. Put shortly:
(§1)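 Cells at 10⁶/ml in DPBS/1% FBS were incubated on ice for 1 h with antibodies in 1:3 serial dilutions from 15 μg/mL. Detection used PE anti-human Fc (1:400, 30 min on ice) with 7-AAD viability staining, read by flow cytometry. EC₅₀ from binding curves; anti-HEL hIgG1 isotype control.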
For orientation: Flow cytometry measures light scatter and fluorescence of single cells or particles in a stream.

Assay [2] deals with T1, human Trop-2 expressed on cell surface. The assay is described as follows: cell-based or functional assay.
The target is the same in assay [3]. In words: cell-based or functional assay. The source holds these as a separate data set.
The target in assay [4] is T2, human Trop-2-His protein (human, UniProt P09758 27-274).
T2 construct: extracellular domain; Assay paragraphs say only 'Trop-2-His'; also called hTrop-2; Kactus Cat #TRP-HM121; not shown: His tag
T2 sequence (looked up): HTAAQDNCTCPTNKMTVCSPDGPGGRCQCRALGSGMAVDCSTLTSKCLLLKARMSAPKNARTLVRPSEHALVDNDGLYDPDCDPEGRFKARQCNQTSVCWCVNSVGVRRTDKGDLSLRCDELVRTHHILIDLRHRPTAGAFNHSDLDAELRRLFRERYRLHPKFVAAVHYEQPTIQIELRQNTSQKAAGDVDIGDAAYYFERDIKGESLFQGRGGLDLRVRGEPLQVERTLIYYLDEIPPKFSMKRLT
The assay is described as follows: ELISA, coated Trop-2 protein. Put shortly:
(§2)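 Purified antibodies were checked for binding to human or cynomolgus Trop-2-His protein by ELISA. Maxisorp plates were coated overnight at 4° C with 0.5 μg/ml protein, blocked with PBST/3% BSA, and incubated with serially diluted antibodies. Binding was detected with HRP-conjugated anti-hIgG and TMB, read at 450 nm, and EC₅₀ values were calculated in Graphpad Prism.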

Assay [5] addresses T3, cynomolgus Trop-2-His protein (cynomolgus, UniProt P09758 27-274 (human entry)).
T3 construct: also called cynmolgus Trop-His; Kactus Cat #TRP-CM121; not shown: His tag
T3 chain: T2 sequence (looked up) with M36V, S67N, G139S, I204V
The assay is described as follows: ELISA, coated Trop-2 protein. Put shortly: as §2

Assay [6] concerns the target T2, human Trop-2-His protein. The assay is described as follows: BLI (Gator Prime), LEM supernatant Ab on HFC probe. Put shortly:
(§3)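 Antibodies from LEM transfection supernatants were diluted 1:1 in K buffer and captured on HFC probes. Association and dissociation of human or cynomolgus Trop-2-His were then followed by BLI, with blank reference subtraction and affinity from kinetic fitting. Sacituzumab govitecan at 1 μg/ml served as positive control.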

Assay [7] has as its target T3, cynomolgus Trop-2-His protein. The assay is described as follows: BLI (Gator Prime), LEM supernatant Ab on HFC probe. Put shortly:
as §3

Assay [8] addresses T1, human Trop-2 expressed on cell surface. In words: flow cytometry, MCF-7 cells. Put shortly: as §1

One may read the EC50 as the concentration that produces a half-maximal response. A higher EC50 goes with a less potent agent. For orientation: Kd means the constant that tells how readily two partners part at equilibrium. The koff is a measure of how fast the partners let go of each other. Lower therefore signals a long-lived complex. As usually defined, the kon is a measure of how fast the partners come together.

Residue numbers refer to the chain shown, from its start.

B1: 65D5 (antibody, V domains shown)
VH: QEQLKESGGGLVQPGGSLKLSCKASGFDFNAYGVSWVRQAPGKGLEWIAYIYPAFHNTYYATWVNGRFTISSHNAQNTLYLQLNTLTAADTATYFCARDAGTTDYNFNLWGPGTLVTVSS
VL: DIVMTQTPASVSEPVGGTVTIKCQASQSISSYLAWYQQKPGQPPKLLIYEATKLTSGVSSRFSGSGYGTEFTLTISGVECADAATYYCQQALTVGDVDNPFGGGSEVVVK
notes: Rabbit-derived clone; LEM construct: VH + rabbit IgG CH1 + human IgG1 CH2-CH3
In the case of B1, in assay [1], the EC50 worked out at 0.01 nM. Also, in assay [2], the “EC50 of ADCC (NFAT-CD16 reporter), MCF-7” value is 0.32 nM and the “EC50 of ADCC (NFAT-CD16 reporter), MDA-MB-231” value amounted to 0.05 nM. Moreover, in assay [3], the “Internalization %, MDA-MB-231, 0.25 µg/ml, 2 h” value came out at 34%; the “Internalization %, MDA-MB-231, 0.25 µg/ml, 4 h” value was found to be 51%; the “Internalization %, MDA-MB-231, 0.5 µg/ml, 2 h” value was determined as 43%; the “Internalization %, MDA-MB-231, 0.5 µg/ml, 4 h” value came out at 51%. In assay [3], the “Internalization %, MDA-MB-231, 1 µg/ml, 2 h” value is 37%; the “Internalization %, MDA-MB-231, 1 µg/ml, 4 h” value worked out at 48%; the “Internalization %, MDA-MB-231, 2 µg/ml, 2 h” value was 31%; the “Internalization %, MDA-MB-231, 2 µg/ml, 4 h” value is 41%. This molecule also gave an EC50 with human Trop-2-His protein [4] of 0.019 nM. Moreover, the EC50 in assay [5] was found to be 0.015 nM. In the assay with human Trop-2-His protein [6], this molecule came in with a Kd of 0.656 nM, a koff of 0.00046 s⁻¹ and a kon of 706000 M⁻¹ s⁻¹. In assay [7], this molecule returned a Kd of 0.628 nM, a koff of 0.00061 s⁻¹ and a kon of 972000 M⁻¹ s⁻¹. Also, in assay [8], the response was half-maximal at 0.8 nM (EC50).

B2: 66A1 (antibody, V domains shown)
VH: B1 VH with A31N, T62S, T85S, T102G, N106A, F107Y
VL: DVVMTQTPASVEAAVGGTVSINCQASEDIESYLAWYQQKPGQPPKLLIYKASTLASGVSSRFKGSGSGKQFTLTISGVECADAATYYCQQVLTIGNVDNPFGGGSEVVVK
notes: as for B1
The molecule B2 returned an EC50 in assay [1] of 0.01 nM. Moreover, in assay [2], the “EC50 of ADCC (NFAT-CD16 reporter), MCF-7” value is 0.22 nM and the “EC50 of ADCC (NFAT-CD16 reporter), MDA-MB-231” value amounted to 0.06 nM. In addition, in assay [3], the “Internalization %, MDA-MB-231, 0.25 µg/ml, 2 h” value was determined as 45%; the “Internalization %, MDA-MB-231, 0.25 µg/ml, 4 h” value worked out at 51%; the “Internalization %, MDA-MB-231, 0.5 µg/ml, 2 h” value was 46%; the “Internalization %, MDA-MB-231, 0.5 µg/ml, 4 h” value is 50%. In assay [3], the “Internalization %, MDA-MB-231, 1 µg/ml, 2 h” value is 39%; the “Internalization %, MDA-MB-231, 1 µg/ml, 4 h” value worked out at 49%; the “Internalization %, MDA-MB-231, 2 µg/ml, 2 h” value was 36%; the “Internalization %, MDA-MB-231, 2 µg/ml, 4 h” value came out at 43%. In addition, a half-maximal response with human Trop-2-His protein [4] (EC50) required 0.013 nM. The molecule further came in with a concentration giving a half-maximal response (EC50) in assay [5] of 0.014 nM. In the assay with human Trop-2-His protein [6], this molecule showed a Kd of 0.426 nM, a koff of 0.00028 s⁻¹ and a kon of 656000 M⁻¹ s⁻¹. In assay [7], this molecule gave a Kd of 0.367 nM, a koff of 0.00032 s⁻¹ and a kon of 869000 M⁻¹ s⁻¹. Moreover, the EC50 in assay [8] stood at 0.6 nM.
